Measured values published in paper PMC8882475.

Molecular target: FcRn (UniProt P55899)
Assay: BLI

SI–F019, huACE2 (18–615) - IgG1 Fc null (from UniProt Q9BYF1-1 18-615) (Fc fusion)
Kd: 37.6 nM
